Measured values taken from the supplement of paper PMC12338614.

B1: library; numbered along this chain (parent)
chain: MEVVDPQQLGMFTEGELMSVGMDTFIHRIDSTEVIYQPRRKRAKLIGKYLMGDLLGEGSYGKVKEVLDSETLCRRAVKILKKKKLRRIPNGEANVKKEIQLLRRLRHKNVIQLVDVLYNEEKQKMYMVMEYCVCGMQEMLDSVPEKRFPVCQAHGYFCQLIDGLEYLHSQGIVHKDIKPGNLLLTTGGTLKISDLGVAEALHPFAADDTCRTSQGSPAFQPPEIANGLDTFSGFKVDIWSAGVTLYNITTGLYPFEGDNIYKLFENIGKGSYAIPGDCGPPLSDLLKGMLEYEPAKRFSIRQIRQHSWFRKKHPPAEAPVPIPPSPDTKDRWRSMTVVPYLEDLHGADEDEDLFDIEDDIIYTQDFTVPGQVPEEEASHNGQRRGLPKAVCMNGTEAAQLSTKSRAEGRAPNPARKACSASSKIRRLSACKQQ

Variants of: B1
Test: STK11 functional score (HeLa growth suppression), rescaled enrichment; synonymous median = 1, nonsense median = 0 (normalised score)
Conditions: with HeLa; variant type: missense
Method in brief: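 In HeLa, Bxb1 integrated POPCode codon-randomised libraries of codon-optimised STK11 at an AAVS1 landing pad; three regions were each transfected three times. Integrants, marked as BFP-negative and mCherry-positive, were FACS-sorted 4–5 days after electroporation and expanded for about two weeks before tiled gDNA amplicons were sequenced on NextSeq (~2 million reads per tile). Each functional score is a post/pre-selection log ratio corrected to wild type, rescaled to the synonymous and nonsense medians, and merged across codons and replicate transfections, with error estimated by bootstrapping.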

STK11 functional score: each site, then its substitutions
H313: S 1.17 | P 0.624 | E 1.43 | I 1.45 | Y 0.272 | L 1.48 | V 0.495 | A 1.33 | R -0.189 | M 1.25 | Q 0.889 | N 0.48 | D 1.17 | C 1.26 | G 1.13 | W 1.05
R304: L 1.06 | F 0.0963 | A 1.49 | I 0.364 | K 1.31 | G 1.24 | V 1.51 | Y -0.17 | S 0.843
S307: I 1.02 | P 1.57 | A 1.49 | W 1.47 | T 1.22 | D 1.49 | G 0.664 | F 1.38 | L 1.47 | R 0.948 | V 1.34
K296: M 1.32 | N 1.12
I300: S 0.391 | F 1.21 | A 1.51 | L 1.25 | C 0.803 | R -0.144 | P 1.42 | G 0.368 | W 1.27 | V 1.13 | M 0.944
A295: F 1.08 | D 1.21 | V 1.17 | S 1.44 | H 1.4 | N 1.24 | L 0.756 | G 1.37 | C 1.31 | W 1.36 | I 1.35
R297: I 0.0965 | G -0.132 | V -0.053 | A 0.147 | K -0.29 | F -0.355 | P -0.429 | S -0.196 | W -0.193 | D 0.0713 | C -0.195 | T -0.0209 | L -0.121
F309: L 0.874 | S 0.538 | V 0.0641 | I 1.38 | R 0.0957 | D -0.479 | N -0.159 | G -0.12
E293: S 1.08 | D 1.43 | A 1.03 | Q 1.23 | L 0.882 | H 1 | M 0.995 | I 1.16 | N 1.55 | T 1.3 | F 1.07 | V 1.02 | G 0.451 | R 0.395 | W 1.07 | P 0.842
G288: V 0.518 | R 0.927 | C 0.989 | P 0.0262 | I -0.0856 | E 1.5 | Y 0.713 | F 0.357 | S 0.938 | H 1.61 | M 1.23 | L 0.221 | D -0.347
L290: F 0.664 | E -0.387 | A 0.0427 | S 0.0143 | I 1.06 | W 0.691 | R -0.22 | C 1.06 | H -0.09 | N -0.076 | P 0.264 | Y -0.205 | V 0.625 | D -0.275 | Q -0.237 | T 1.07 | G 0.0144 | M 0.891
R310: S 1.54 | D 1.6 | H 1.5 | Y 1.53 | T 0.923 | P 0.954 | I 1.59 | C 1.06 | L 1.37 | F 1.35 | G 0.764 | V 1.43
I303: S -0.209 | D -0.579 | Q 1.56 | Y -0.337 | C 0.545 | V 1.43 | M 0.518 | F 0.372 | N 1.54
Q305: D 1.36 | I 1.53 | F 1.51 | E 1.02 | G 1.52 | H 0.99 | K 0.543 | T 1.5 | M 1.51 | S 0.954 | Y 1.53 | V 1.59 | L 1.6 | W 0.981 | R 1.14 | A 1.33 | C 1.27
R301: F 1.55 | A 1.56 | G 1.48 | S 1.49 | P 1.07 | L 1.6 | C 1.17 | I 1.65 | Y 1.6 | V 1.62
M289: L 0.831 | D 0.312 | S -0.188 | R -0.101 | V 0.966 | F -0.0683 | E -0.103 | A 0.107 | Q 0.0869 | P -0.379 | G -0.0773 | W -0.296 | C 0.75 | Y -0.218
K311: T 1.3 | D 1.32 | A 1.61 | Y 1.06 | L 1.04 | V 0.835 | W 0.995 | P 1.07 | N 0.848 | I 1.26 | S 0.915 | H 0.501 | R 1.43 | G 1.35
F298: P 1.16 | G -0.228 | W 0.876 | E -0.101 | L 0.608 | V 0.839 | Y 0.754 | S 0.975 | D 1.48 | A 1.55 | I 1.35 | R 0.428
Q302: F 1.14 | C 1 | A 1.45 | G 1.14 | S 1.47 | H 1.12 | K 0.605 | L 1.45 | W 0.804 | P -0.0839 | E 0.957 | V 1.21 | R 1.53
W308: R -0.166 | S -0.303 | A 0.0826 | V -0.266 | G 0.086 | F 1.02 | Y -0.119 | C -0.11 | L -0.172
E291: G 0.922 | L 0.796 | P 0.178 | F 0.825 | K 1.28 | D 1.03 | W 1.35 | V 1.28 | C 1.24 | M 1.66 | A 1.47 | Q 1.36 | H 1.17 | I 1.22 | R 1.53 | S 1.38 | T 1.15 | N 0.978
S299: G 1.18 | D 1.18 | E 1.56 | I 1.25 | W 1.24 | T 1.55 | C 1.3 | R 1.53 | F 0.544 | A 1.42 | V 0.978 | N 1.59 | L 0.649
K312: C 1.17 | R 1.57 | L 1.3 | T 1.5 | E 0.874 | D 1.49 | N 1.58 | P 1.37 | M 1.45 | W 1.53 | Q 1.58 | Y 1.2 | V 1.27 | F 0.982 | S 1.29 | G 1.62 | A 1.25
P294: V 1.36 | N 0.433 | T 1.09 | Q 1.39 | M 1.13 | E 1.3 | W 1.36 | D 0.708 | H 0.973 | G 0.877 | S 0.67 | A 1.39 | L 0.297 | I 0.351 | R 0.705
Y292: G 1.45 | R 1.22 | F 0.991 | D 1.09 | P 1.38 | C 0.438 | T 1.68 | E 1.52 | S 1.28 | A 1.15 | W 0.686 | M 1.64 | V 0.931 | I 1.09 | L 0.546
H306: A 1.38 | G 0.475 | V 0.418 | Y 0.195 | S 1.53 | L 0.85 | Q 0.514 | R 0.628 | P 0.114 | I 0.83 | E 1.19 | C 0.975 | T 1.54 | W -0.368
P314: A 1.13 | C 1.53 | E 1.54 | D 1.5
